Substitutions are numbered along the chain they refer to.
Columns and labels:
[1] = target: soluble human C3b (human) (UniProt P01024)
human C4b (human) [2] = target: T1, human C4b (human) (UniProt P0C0L4)
T1 sequence: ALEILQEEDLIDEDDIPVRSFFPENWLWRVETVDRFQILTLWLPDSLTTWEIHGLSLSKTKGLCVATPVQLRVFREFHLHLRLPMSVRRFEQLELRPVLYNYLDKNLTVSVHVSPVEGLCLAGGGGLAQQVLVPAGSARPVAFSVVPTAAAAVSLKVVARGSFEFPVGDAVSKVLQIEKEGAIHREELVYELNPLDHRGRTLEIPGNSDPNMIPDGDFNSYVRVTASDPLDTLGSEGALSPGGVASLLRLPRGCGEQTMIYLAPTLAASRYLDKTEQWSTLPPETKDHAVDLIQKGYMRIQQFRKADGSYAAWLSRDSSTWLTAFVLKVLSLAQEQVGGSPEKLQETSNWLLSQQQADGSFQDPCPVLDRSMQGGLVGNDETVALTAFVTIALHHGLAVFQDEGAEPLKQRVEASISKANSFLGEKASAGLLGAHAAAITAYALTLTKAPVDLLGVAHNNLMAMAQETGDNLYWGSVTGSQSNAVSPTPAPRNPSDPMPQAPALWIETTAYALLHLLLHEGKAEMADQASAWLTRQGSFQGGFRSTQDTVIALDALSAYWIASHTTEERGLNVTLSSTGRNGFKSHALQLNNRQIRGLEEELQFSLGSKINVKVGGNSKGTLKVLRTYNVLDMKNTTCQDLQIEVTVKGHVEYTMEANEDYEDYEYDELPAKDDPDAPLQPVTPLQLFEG

[3] = target: soluble human C3b (human) (UniProt P01024); remark: listed apart in the source
human C4b (human) [4] = target: T2, human C4b (human) (UniProt P0C0L5)
T2 sequence: T1 sequence with A151T, D317G, P364L, C365S, L368I, D369H, N420S, V451A, L454R, S530A

Row | Substance | iC3b EC50 [1] [nM] | C4c EC50 (human C4b (human) [2]) [nM] | iC3b Screen Ref Fold (fold of CFI-HSA wild type) [3] | C4b Screen Ref Fold (fold of CFI-HSA wild type) (human C4b (human) [4]) | C4c EC50 (nM) (human C4b (human) [2]) | iC3b Screen Ref Fold (fold vs CFI-HSA wild type) [3] | C4b Screen Ref Fold (fold vs CFI-HSA wild type) (human C4b (human) [4])
1 | CFI-HSA variant G556A (enzyme) | 76 | > 1000 | 0.15 | 1.06 |  |  | 
2 | CFI-HSA variant G556S (enzyme) | 29.7 | 180 | 0.55 | 1.53 |  |  | 
3 | CFI-HSA variant Y408N (enzyme) | 64.2 |  |  |  | 710 | 0.51 | 0.09
4 | CFI-HSA variant N531G; E416A (enzyme) | 6.9 |  | 1.11 | 4.82 | 11.9 |  | 
5 | CFI-HSA variant P558L (enzyme) | 12.4 |  |  |  | 472 | 0.99 | 0.89
6 | CFI-HSA variant D425R; Y408L; N531G; E457G; E461Q; R462K; F464Y (enzyme) | 4.9 |  |  |  | 26.1 | 1.4 | 4.93
7 | CFI-HSA variant N422K (enzyme) | 10.9 |  |  |  | 359 | 1.36 | 2.13
8 | CFI-HSA variant E457G; E416A (enzyme) | 7.1 | 94.9 | 1.41 | 4.63 |  |  | 
9 | CFI-HSA variant F537K (enzyme) | 40.2 |  |  |  | 890 | 1.28 | 0.3
10 | CFI-HSA variant R557K (enzyme) | 99.9 |  |  |  | 266 | 0.28 | 3.09
11 | CFI-HSA variant E457G; N531G; P558S (enzyme) | 6.7 | 17.5 | 0.92 | 5.87 |  |  | 
12 | CFI-HSA variant E530G; N531G (enzyme) | 31.3 |  |  |  | > 1000 | 0.54 | 0.04
13 | CFI-HSA variant E457G; E461Q (enzyme) | 5.5 |  |  |  | 53.1 | 1.44 | 5.84
14 | CFI-HSA variant E457G; N531G; D425K (enzyme) | 4.4 | 12.7 | 0.99 | 5.43 |  |  | 
15 | CFI-HSA variant E457G; D425R; E416A (enzyme) | 3.1 |  | 2.48 | 4.35 | 59.3 |  | 
16 | CFI-HSA variant N518Q (enzyme) | 20.2 |  |  |  | 510 | 1 | 1.11
17 | CFI-HSA variant E457G; D425K (enzyme) | 4.1 | 43.3 | 1.5 | 5.33 |  |  | 
18 | CFI-HSA variant F537R (enzyme) | 29.1 |  |  |  | 645 | 1.08 | 0.16
19 | CFI-HSA variant Y408L; P535G; D425K (enzyme) | 19.7 | > 1000 | 0.56 | 0 |  |  | 
20 | CFI-HSA variant Q467R (enzyme) | 27.1 |  |  |  | 399 | 0.59 | 0.48
21 | CFI-HSA variant E457G; N531G; D425R; E416A (enzyme) | 3.1 |  | 2.12 | 4.54 | 4.1 |  | 

Reference: US20230038638A1, “COMPLEMENT FACTOR I-RELATED COMPOSITIONS AND METHODS” (published 2023)
